Measurements as given in PMC4148589 (Journal of cell science, 2013).
Blank lines part the entries; values can stand above or below the binder they belong to.

Assays:
Test in all cases: FRAP
[1] = biological target: CaV1.2 α1C subunit, untagged (pβA-α1C) (UniProt P22002-5 1-2142)
[2] = biological target: CaV1.1 α1S with deletion of amino acid 344 (pc-α1Sdel1(Δ344)) (UniProt P07293 1-1873, Δ344)
[3] = biological target: CaV1.1 α1S with deletion of amino acids 344–345 (pc-α1Sdel2(Δ344–345)) (UniProt P07293 1-1873, Δ344–345)
[4] = biological target: CaV1.1 α1S with deletion of amino acids 344–346 (pc-α1Sdel3(Δ344–346)) (UniProt P07293 1-1873, Δ344–346)
[5] = biological target: CaV1.1 α1S subunit, untagged (pc-α1S) (UniProt P07293 1-1873)

R75 (fractional fluorescence recovery 75 s after bleaching) [2]: 20.9%
R75 (fractional fluorescence recovery 75 s after bleaching) [3]: 19.9%
R75 (fractional fluorescence recovery 75 s after bleaching) [4]: 22.8%
B1: skeletal muscle β1a subunit, GFP-tagged (pcDNA3-β1a-GFP) (natural protein)
chain: not shown
R75 (fractional fluorescence recovery 75 s after bleaching) [1]: 23.6%

R75 (fractional fluorescence recovery 75 s after bleaching) [5]: 45.2%
B2: β1a subunit with the substitution M293A, GFP-tagged (pcDNA3-β1aM293A-GFP) (natural protein)
chain: not shown
